Source: paper PMC8924211 (Nature Communications, 2022)

Legend:
[1] = target: T1, SNAP-GAL2R V259^6.58A (human, UniProt O43603 1-387, V259^6.58A, Lumi4-Tb on the SNAP tag); test: AlphaScreen or HTRF; saturation binding: HEK293 cells transfected with SNAP-tagged receptor (WT or mutant) and labelled with SNAP-Lumi4-Tb, incubated with increasing concentrations of galanin-A2 in the presence or absence of 100 uM unlabeled galanin, 1 h at room temperature; HTRF ratio 665 nm/620 nm; conditions: one partner purified
T1 construct: also called V259A; source: HEK293, transfected, on cells; not shown: SNAP tag, N-terminal, kept
T1 sequence (looked up): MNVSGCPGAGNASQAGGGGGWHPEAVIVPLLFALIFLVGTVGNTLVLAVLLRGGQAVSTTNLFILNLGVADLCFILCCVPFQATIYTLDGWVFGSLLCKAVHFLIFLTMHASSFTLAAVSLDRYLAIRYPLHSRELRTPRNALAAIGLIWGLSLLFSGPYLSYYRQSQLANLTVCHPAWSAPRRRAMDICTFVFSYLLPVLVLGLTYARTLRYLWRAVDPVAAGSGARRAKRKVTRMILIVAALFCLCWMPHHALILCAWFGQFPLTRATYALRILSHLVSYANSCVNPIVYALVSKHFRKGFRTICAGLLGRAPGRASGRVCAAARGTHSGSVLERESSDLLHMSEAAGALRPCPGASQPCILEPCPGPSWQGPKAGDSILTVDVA

[2] = target: T2, SNAP-GAL2R W249^6.48A (human, UniProt O43603 1-387, W249^6.48A, Lumi4-Tb on the SNAP tag); test: as above; conditions: one partner purified
T2 construct: also called W249A; source: HEK293, transfected, on cells; not shown: SNAP tag, N-terminal, kept
T2 sequence (looked up): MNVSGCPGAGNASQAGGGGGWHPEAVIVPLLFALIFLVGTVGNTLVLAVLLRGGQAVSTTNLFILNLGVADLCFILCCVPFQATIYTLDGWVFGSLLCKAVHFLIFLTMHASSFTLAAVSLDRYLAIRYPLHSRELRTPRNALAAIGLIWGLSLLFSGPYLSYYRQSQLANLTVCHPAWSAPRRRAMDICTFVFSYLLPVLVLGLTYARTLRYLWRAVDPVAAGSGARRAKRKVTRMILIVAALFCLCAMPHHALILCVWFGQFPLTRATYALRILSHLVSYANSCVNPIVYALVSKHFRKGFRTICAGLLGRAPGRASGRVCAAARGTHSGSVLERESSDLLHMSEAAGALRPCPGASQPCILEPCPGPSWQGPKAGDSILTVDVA

[3] = target: T3, SNAP-GAL2R A170^ECL2S (human, UniProt O43603 1-387, A170^ECL2S, Lumi4-Tb on the SNAP tag); test: as above; conditions: one partner purified
T3 construct: also called A170S; source: HEK293, transfected, on cells; not shown: SNAP tag, N-terminal, kept
T3 sequence (looked up): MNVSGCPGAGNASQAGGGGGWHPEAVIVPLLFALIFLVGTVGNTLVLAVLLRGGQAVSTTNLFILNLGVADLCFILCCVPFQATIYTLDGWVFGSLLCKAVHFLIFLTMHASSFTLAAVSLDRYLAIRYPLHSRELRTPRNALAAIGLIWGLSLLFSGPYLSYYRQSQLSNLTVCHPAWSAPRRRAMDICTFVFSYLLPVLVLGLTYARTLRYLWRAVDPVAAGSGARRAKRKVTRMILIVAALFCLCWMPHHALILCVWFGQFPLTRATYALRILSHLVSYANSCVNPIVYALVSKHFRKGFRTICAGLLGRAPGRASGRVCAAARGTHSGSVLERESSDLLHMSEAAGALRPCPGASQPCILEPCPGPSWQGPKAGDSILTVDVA

[4] = target: T4, SNAP-GAL2R R184^5.35A (human, UniProt O43603 1-387, R184^5.35A, Lumi4-Tb on the SNAP tag); test: as above; conditions: one partner purified
T4 construct: also called R184A; source: HEK293, transfected, on cells; not shown: SNAP tag, N-terminal, kept
T4 sequence (looked up): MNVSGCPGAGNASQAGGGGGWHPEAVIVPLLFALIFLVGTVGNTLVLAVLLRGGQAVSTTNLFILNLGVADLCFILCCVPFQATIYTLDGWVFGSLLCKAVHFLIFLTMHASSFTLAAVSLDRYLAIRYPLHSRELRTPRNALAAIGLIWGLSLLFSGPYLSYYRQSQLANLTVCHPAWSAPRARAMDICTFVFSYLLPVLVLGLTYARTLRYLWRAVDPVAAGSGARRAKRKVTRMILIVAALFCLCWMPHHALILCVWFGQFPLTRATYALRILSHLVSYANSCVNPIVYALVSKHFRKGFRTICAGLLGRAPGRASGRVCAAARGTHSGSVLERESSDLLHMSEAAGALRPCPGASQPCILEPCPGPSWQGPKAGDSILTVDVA

[5] = target: SNAP-GAL2R F264^ECL3A (human) (UniProt O43603); test: AlphaScreen or HTRF; saturation binding: HEK293 cells transfected with SNAP-GAL1R or SNAP-GAL2R (WT or mutants), labelled with SNAP-Lumi4-Tb; increasing concentrations of galanin-A2 with or without 100 uM unlabeled galanin, 1 h at room temperature
[6] = target: SNAP-GAL2R Y271^7.32A (human) (UniProt O43603); test: as above
[7] = target: SNAP-GAL2R Q82^2.61A (human) (UniProt O43603); test: as above
Chain of SNAP-GAL2R Q82^2.61A (human) (O43603 whole entry Q82A): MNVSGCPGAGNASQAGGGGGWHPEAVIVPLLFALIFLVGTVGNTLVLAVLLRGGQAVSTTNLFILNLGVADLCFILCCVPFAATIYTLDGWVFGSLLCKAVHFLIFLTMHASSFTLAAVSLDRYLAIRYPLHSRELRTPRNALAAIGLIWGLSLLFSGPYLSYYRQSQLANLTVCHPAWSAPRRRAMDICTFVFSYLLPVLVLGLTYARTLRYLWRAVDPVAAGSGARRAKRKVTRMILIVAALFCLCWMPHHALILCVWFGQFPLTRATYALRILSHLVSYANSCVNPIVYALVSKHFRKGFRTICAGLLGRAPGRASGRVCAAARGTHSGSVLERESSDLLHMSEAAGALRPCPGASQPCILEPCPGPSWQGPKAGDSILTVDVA

Chain of SNAP-GAL2R F264^ECL3A (human) (O43603 whole entry F264A): as the sequence (O43603 whole entry Q82A) above, with A82Q, F264A counted along it
Chain of SNAP-GAL2R Y271^7.32A (human) (O43603 whole entry Y271A): as the sequence (O43603 whole entry Q82A) above, with A82Q, Y271A counted along it

B1: galanin-A2 (full-length galanin labeled with the dye A2 on an additional cysteine at the C-terminal end) (peptide)
peptide: GWTLNSAGYLLGPHAVGNHRSFSDKNGLTSC
modifications: dye A2 on the additional C-terminal cysteine
notes: numbers count on: the mature protein; additional cysteine at the C-terminal end of the peptide, carries the dye A2; source: synthetic peptide (synthesized by Vazyme, China)
- Kd [1]: 180 nM
- Kd [2]: 23.3 nM
- Kd [3]: 33.5 nM
- Kd [4]: 286 nM
- Kd [5]: > 500 nM
- Kd [6]: > 500 nM
- Kd [7]: > 500 nM
